Blank lines part the entries; values can stand above or below the binder they belong to.
Columns and labels:
[1] = molecular target: T1, Human ANGPTL3(17-460)-FLAG-His-Avi (human, UniProt Q9Y5C1 17-460, biotin on the C-terminal Avi tag); test: direct ELISA on streptavidin-coated MSD plate: biotinylated antigen immobilised at 1 nM, antibody at 1 nM, detection with Sulfo-tagged goat anti-human IgG
T1 construct: also called full length human ANGPTL3; hANGPTL3
T1 sequence: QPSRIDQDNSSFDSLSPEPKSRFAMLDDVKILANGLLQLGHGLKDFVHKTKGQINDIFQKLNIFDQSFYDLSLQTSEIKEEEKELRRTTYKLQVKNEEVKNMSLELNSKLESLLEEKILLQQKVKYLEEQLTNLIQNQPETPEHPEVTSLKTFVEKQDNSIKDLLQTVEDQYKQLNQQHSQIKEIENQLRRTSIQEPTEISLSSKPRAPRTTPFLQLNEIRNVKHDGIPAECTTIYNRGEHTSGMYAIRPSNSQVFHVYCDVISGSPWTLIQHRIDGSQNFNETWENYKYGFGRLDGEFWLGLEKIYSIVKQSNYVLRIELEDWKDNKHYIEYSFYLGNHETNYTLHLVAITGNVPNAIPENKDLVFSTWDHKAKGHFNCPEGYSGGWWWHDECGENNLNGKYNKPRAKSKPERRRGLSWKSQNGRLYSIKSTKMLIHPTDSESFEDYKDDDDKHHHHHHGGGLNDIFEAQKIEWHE
Method: Direct ELISA assays were conducted to characterize antibody binding specificity of selected antibodies of the invention. The assay was performed as follows. A 384-well streptavidin-coated Meso Scale Discovery (MSD) plate was blocked by incubating the plate with 50 μL Blocking Buffer (PBS, pH 7.4, 5% w/v bovine serum albumin) per well at 22° C. for 1 hour with constant shaking (600 rpm). The blocked MSD plate was then washed 3 times with Wash Buffer (PBS, pH 7.4 and 0.05% v/v Tween-20) using a plate washer (BioTek). Following washing, biotinylated human ANGPTL4 proteins diluted in Assay Buffer (PBS, pH 7.4 without CaCl₂ or MgCl₂, 0.5% w/v fatty acid-free bovine serum albumin and 0.02% v/v Tween-20) were immobilized on the surface by incubation at 1 nM concentration (15 μL per well) at 22° C. for one hour: full length human ANGPTL4 (hANGPTL4), human ANGPTL4 coiled-coil domain (hANGPTL4-CCD) and full length human ANGPTL3 (hANGPTL3). The plate was then washed 3 times as described earlier. Antibody diluted to 1 nM concentration in Assay Buffer was then applied to the MSD plate […], and the plate was incubated for 1 hour at 22° C. with constant shaking (600 rpm). Bound antibodies were detected by adding 15 μL per well of a 1:500 dilution of Sulfo-tagged goat anti-human IgG. The plate was then incubated for one hour with constant shaking (600 rpm). The plate was washed 3 times, and then 15 μL/well of 1×MSD read buffer T was added and the plate was developed using a Sector Imager 6000 (Meso Scale Discovery). The data were transferred to Microsoft Excel for analysis and plotted using GraphPad Prism v6. […] An ANGPTL3-specific reference antibody was used as a positive control for the ANGPTL3 binding assay (FIG. 2).

[2] = molecular target: T2, Mouse ANGPTL4(26-410)-FLAG-His6-Avi (mouse, UniProt Q9Z1P8 24-410, biotin on the C-terminal Avi tag in the immobilised form); test: SET assay (solution equilibrium titration, MSD), IgG
T2 sequence: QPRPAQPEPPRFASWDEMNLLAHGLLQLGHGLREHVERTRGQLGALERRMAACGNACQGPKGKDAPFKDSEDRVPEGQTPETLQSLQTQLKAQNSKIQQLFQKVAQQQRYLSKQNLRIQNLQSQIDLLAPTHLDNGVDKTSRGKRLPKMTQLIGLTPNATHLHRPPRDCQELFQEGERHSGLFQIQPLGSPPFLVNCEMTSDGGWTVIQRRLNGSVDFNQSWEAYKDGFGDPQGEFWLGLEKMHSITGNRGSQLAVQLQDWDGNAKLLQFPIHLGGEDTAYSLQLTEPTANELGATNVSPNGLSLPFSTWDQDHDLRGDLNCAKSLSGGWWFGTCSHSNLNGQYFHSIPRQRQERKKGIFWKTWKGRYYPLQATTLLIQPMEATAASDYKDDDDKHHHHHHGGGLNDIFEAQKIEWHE
Method: (§1) SET assays were performed as follows. In a 96-well polypropylene plate, a constant concentration of ANGPTL4 antibody was mixed with different concentrations of non-biotinylated human, cyno, mouse, or rat full-length ANPGLT4 protein, or human ANGPTL4 N-terminal domain protein (5-fold serial dilution) and incubated at 22° C. for 14 hours with constant shaking (300 rpm). On a pre-blocked 384-well streptavidin-coated Meso Scale Discovery (MSD) plate biotinylated ANGPTL4 (full-length human, cyno, mouse, or rat ANGPTL4, or human ANGPTL4 N-terminal domain) protein (1 nM, 15 μL per well) was immobilized and washed thereafter.
(§2) The equilibrium binding reactions (15 μL per well) were applied to the MSD plate with immobilized ANGPTL4 and incubated for 20 min at 22° C. The unbound material was removed by washing the plate 3 times with wash buffer, and the captured antibody was detected by adding Sulfo-tagged goat anti-human IgG (Meso Scale Discovery). After washing MSD read buffer T was added and the plate was developed using a Sector Imager 6000 (Meso Scale Discovery). The data were transferred to Microsoft Excel for analysis and plotted using GraphPad Prism v6. The KD values were determined by fitting the data to the following equation: […]
(§3) where Bₘₐₓ is the signal when no ANGPTL4 protein is present in solution, CAb is the constant concentration of ANGPTL4 antibody in solution, CAg is the concentration of ANGPTL4 in solution, and KD is the equilibrium dissociation constant.

[3] = molecular target: T3, Human ANGPTL4(26-406)-FLAG-His6-Avi (human, UniProt Q9BY76 24-406, biotin on the C-terminal Avi tag in the biotinylated preparations (immobilised form in SET, ELISA and Octet)); test: as above
T3 construct: also called full-length human ANGPTL4; hANGPTL4
T3 sequence: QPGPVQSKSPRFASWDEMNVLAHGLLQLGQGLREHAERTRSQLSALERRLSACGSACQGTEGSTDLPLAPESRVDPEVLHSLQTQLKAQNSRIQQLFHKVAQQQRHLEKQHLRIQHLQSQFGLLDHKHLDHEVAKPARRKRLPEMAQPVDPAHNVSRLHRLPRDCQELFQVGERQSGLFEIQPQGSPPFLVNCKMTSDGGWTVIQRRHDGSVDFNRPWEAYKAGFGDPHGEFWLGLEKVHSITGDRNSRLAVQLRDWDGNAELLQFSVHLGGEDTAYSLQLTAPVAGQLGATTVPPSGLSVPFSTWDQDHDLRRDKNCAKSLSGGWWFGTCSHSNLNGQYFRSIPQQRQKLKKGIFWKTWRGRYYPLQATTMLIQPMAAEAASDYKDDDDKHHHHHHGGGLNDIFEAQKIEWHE
Method: as §1, §2, §3

binding result [1]: no binding (tested: 1 nM) | Kd [2]: 0.517 nM | Kd [3]: 0.093 nM
B1: MOR021798 (antibody, human IgG1, lambda, V domains shown)
VH: QVQLLESGGGLVQPGGSLRLSCAASGFTFSDYALHWVRQAPGKGLEWVSRISYMGSSTYYADSVKGRFTISRDNSKNTLYLQMNSLRAEDTAVYYCAREHYYSSPMGGVAVDNWGQGTLVTVSS
VL: DIVLTQPPSVSGAPGQRVTISCSGSSSNIGYNTVSWYQQLPGTAPKLLIYSNNIRPSGVPDRFSGSKSGTSASLAITGLQAEDEADYYCSSWDFLIKSLVFGGGTKLTVLG
notes: human IgG1

binding result [1]: no binding (tested: 1 nM) | Kd [2]: 0.005 nM | Kd [3]: 0.01 nM
B2: MOR021792 (antibody, human IgG1, lambda, V domains shown)
VH: QVQLLESGGGLVQPGGSLRLSCAASGFTFSDYAMDWVRQAPGKGLEWVSKISYDGSYTYYADSVKGRFTISRDNSKNTLYLQMNSLRAEDTAVYYCARPSMSYYIIPAGFDVWGQGTLVTVSS
VL: DIELTQPPSVSVSPGQTASITCSGDALGVKRASWYQQKPGQAPVLVIYKDNNRPSGIPERFSGSNSGNTATLTISGTQAEDEADYYCSVRTWSMNLYVFGGGTKLTVLG

Kd [3]: 0.01 nM
B3: MOR022765 (antibody, human IgG1, lambda, V domains shown)
VH: EVQLVQSGAEVKKPGESLKISCKGSGYSFSTYWISWVRQMPGKGLEWMGIIDPSSSDTRYSPSFQGQVTISADKSISTAYLQWSSLKASDTAMYYCARVYGYVYMDVWGQGTLVTVSS
VL: SYELTQPLSVSVALGQTARITCSGDNLGKKYAYWYQQKPGQAPVLVIYDKTKRPSGIPERFSGSNSGNTATLTISRAQAGDEADYYCASYDWYSSSYVFGGGTKLTVLG
notes: human IgG1
